Source: paper doi:10.1101/2023.08.24.554544 (2023)

T1: aster yellows witches'-broom phytoplasma SAP05 (AYWB_SAP05), mature, 33-135 (Aster Yellows phytoplasma strain …, UniProt Q2NK94 33-135)
T1 chain: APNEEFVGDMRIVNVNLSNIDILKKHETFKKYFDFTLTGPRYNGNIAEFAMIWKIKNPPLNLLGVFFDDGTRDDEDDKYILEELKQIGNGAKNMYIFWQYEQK

B1: GST-tagged A. thaliana Rpn10 (AtRpn10) vWA domain (domain or fragment)
chain: VLEATMICIDNSEWMRNGDYSPSRLQAQTEAVNLLCGAKTQSNPENTVGILTMAGKGVRVLTTPTSDLGKILACMHGLDVGGEINLTAAIQIAQLALKHRQNKNQRQRIIVFAGSPIKYEKKALEIVGKRLKKNSVSLDIVNFGEDDDEEKPQKLEALLTAVNNNDGSHIVHVPSGANALSDVLLSTPVFTG
B2: GST-tagged homo sapiens Rpn10 (hRpn10) vWA (1-193aa) (domain or fragment)
chain: MVLESTMVCVDNSEYMRNGDFLPTRLQAQQDAVNIVCHSKTRSNPENNVGLITLANDCEVLTTLTPDTGRILSKLHTVQPKGKITFCTGIRVAHLALKHRQGKNHKMRIIAFVGSPVEDNEKDLVKLAKRLKKEKVNVDIINFGEEEVNTEKLTAFVNTLNGKDGTGSHLVTVPPGPSLADALISSPILAGEG

Columns and labels:
[1] = biological target: V-shape-GSGS-C-ter peptide (fused V-shape and C-ter peptide of SAP05, linked by the GSGS linker) (UniProt Q2NK94); assay: SPR
[2] = biological target: T1, aster yellows witches'-broom …; assay: SPR

Binder	koff [1]	Kd [2]
B1	0.0115 s⁻¹	
B2		~149 µM
